Square brackets hold non-standard residues; d marks the D form. Ends that are not written are not given here.
Key:
Assay in all cases: fluorescence polarisation + other: time-gated luminescence intensity (TGLI); binding/displacement assay in solution with the probes ARC-1451, ARC-1188 or ARC-583; 20 min at 30 °C; 50 mM HEPES pH 7.4, 150 mM NaCl, 5 mM dithiothreitol, 0.5 mg/mL BSA, 0.005% Tween-20; N = 2
Conditions in all cases: both partners purified
protein kinase PIM-1 = protein kinase PIM-1 (human, UniProt P11309 1-313)
[1] = target: catalytic subunit α of protein kinase A (human, UniProt P17612 1-351)
protein kinase PIM-3 = protein kinase PIM-3 (human, UniProt Q86V86 1-326)
protein kinase PIM-2 = protein kinase PIM-2 (human, UniProt Q9P1W9 1-311)
Chain of protein kinase PIM-2 (Q9P1W9 whole entry): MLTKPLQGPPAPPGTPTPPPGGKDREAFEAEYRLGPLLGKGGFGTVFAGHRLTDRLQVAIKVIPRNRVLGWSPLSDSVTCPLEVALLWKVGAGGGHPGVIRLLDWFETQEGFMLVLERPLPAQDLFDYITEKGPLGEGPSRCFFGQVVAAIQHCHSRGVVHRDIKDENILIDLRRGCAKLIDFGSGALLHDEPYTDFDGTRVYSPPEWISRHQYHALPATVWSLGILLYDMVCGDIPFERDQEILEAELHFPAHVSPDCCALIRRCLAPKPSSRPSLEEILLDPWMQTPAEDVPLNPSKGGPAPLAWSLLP

Chain of protein kinase PIM-1 (P11309 whole entry): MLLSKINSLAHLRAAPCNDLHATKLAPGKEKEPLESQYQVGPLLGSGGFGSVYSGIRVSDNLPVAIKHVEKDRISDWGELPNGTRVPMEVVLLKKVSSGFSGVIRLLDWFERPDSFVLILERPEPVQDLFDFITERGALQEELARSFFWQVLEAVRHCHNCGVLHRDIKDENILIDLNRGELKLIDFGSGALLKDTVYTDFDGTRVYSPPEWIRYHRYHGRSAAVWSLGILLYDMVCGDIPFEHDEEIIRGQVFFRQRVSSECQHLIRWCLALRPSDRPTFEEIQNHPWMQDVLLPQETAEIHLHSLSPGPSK

Kd (protein kinase PIM-1): > 11.5 µM | Kd [1]: > 89 µM | Kd (protein kinase PIM-3): > 16.4 µM | Kd (protein kinase PIM-2): > 46 µM
B1: PIM peptide, (D-Arg)2-Gly-D-Arg-D-Lys-NH2 (peptide)
peptide: [dR][dR]G[dR][dK]-NH2
modifications: N-terminus assumed
SMILES: N=C(N)NCCC[C@@H](N)C(=O)N[C@H](CCCNC(=N)N)C(=O)NCC(=O)N[C@H](CCCNC(=N)N)C(=O)N[C@H](CCCCN)C(N)=O
notes: printed in three-letter code as (D-Arg)2-Gly-D-Arg-D-Lys-NH2; All chiral residues are D-amino acids; This is the peptide part of compounds 1-5, without the adenosine analogue moiety and the linker; also called designed peptide mimetic moiety of compounds 1-5; source: synthetic peptide (Fmoc solid-phase synthesis on Rink amide resin, HPLC purified)

— paper PMC8307404, “Crystal Structure-Guided Design of Bisubstrate Inhibitors and Photoluminescent Probes for Protein Kinases of the PIM Family” (Molecules, 2021)
